In article PMC8473235:

Tested on: GST-VPg (Tulane virus) (Tulane virus)
Assay: ELASA

Sequence | binding signal (positive:negative absorbance ratio)
AGTATACGTATTACCTGCAGCAAGGCTTTTTTAAAGGCTAGGCTTGATAATCGGTTAACTCCGATATCTCGGAGATCTTGC [N4-2] | > 10
AGTATACGTATTACCTGCAGCAGGGATGTGTTGGATGCATGCCAGGCTTGGTAACATTGTACGATATCTCGGAGATCTTGC [N3] | > 10
AGTATACGTATTACCTGCAGCAGTGGGTGGTGATGAATTCTGGTCGCGCTGACAACCCGCGCGATATCTCGGAGATCTTGC [N14] | > 10
AGTATACGTATTACCTGCAGCCAGAGTTGATGTAAGCTTCGTGTTAGCTCAACTCTTATCGCGATATCTCGGAGATCTTGC [N6] | > 10
AGTATACGTATTACCTGCAGCCGGGTCTCGTCTATGCAGTACTCAAAACGCTTGAGGTACCGACGATATCTCGGAGATCTTGC [N1-2] | > 10
AGTATACGTATTACCTGCAGCTAGTAACGATTACCAAAATTCTCCCGAGGCTGACAACCCGCGATATCTCGGAGATCTTGC [T1-2] | > 10
AGTATACGTATTACCTGCAGCTCACACTCGTTTCTATTACTAAAACATCGTTCCTTTCAGCCGATATCTCGGAGATCTTGC [T5 (= N12-2)] | > 10
AGTATACGTATTACCTGCAGCTCGAGGTATGGCCTTGTCTAGGCGCACCTGACAACCCGGTGCGATATCTCGGAGATCTTGC [T9-2] | > 10
AGTATACGTATTACCTGCAGCTCTTCGGTTTAATAAAGTTGGCTAGGAAAGTTTAAAACCGCGATATCTCGGAGATCTTGC [N13] | > 5
AGTATACGTATTACCTGCAGCTGGAAGGCGGGAAGATTTTTGGTCGACCTGACAACCCGGTCGATATCTCGGAGATCTTGC [T9] | > 10
AGTATACGTATTACCTGCAGCTGTCGATAAAGTGAGTTAAGTCACCGGCCCGGCCTATTCGCGATATCTCGGAGATCTTGC [N11-2] | > 10
AGTATACGTATTACCTGCAGCTGTCGTTAATTATTCGTGATCTGACAACCCGATCACTCTCCGATATCTCGGAGATCTTGC [T10-2] | > 10
